Patent publication US20060182736

Columns and labels:
Assay in all cases: cell_activity
[1] = system: TAT-F475-p65 (QSHR2-RDHT-RSNR) (artificial); conditions: +/-0.48, 293 cells
[2] = system: TAT-F475-KRAB (QSHR2-RDHT-RSNR) (artificial)
[3] = system: TAT-F121-KRAB (QSHT-RSHR-RDHT) (artificial); conditions: 293 cells
[4] = system: TAT-F435-KRAB/KOX (QSHR2-RDHT-RSHR) (artificial); conditions: +/-0.35, VEGF mRNA, 293 cells; protein 2.7 fold; H460 3.8 fold at 12 h (p247)
[5] = system: TAT-F435-p65 (QSHR2-RDHT-RSHR) (artificial); conditions: +/-0.5, secreted VEGF at 48 h, 293 cells, lysate
Sequence of TAT-F435-p65 (QSHR2-RDHT-RSHR) (artificial) (chain, as listed by the source): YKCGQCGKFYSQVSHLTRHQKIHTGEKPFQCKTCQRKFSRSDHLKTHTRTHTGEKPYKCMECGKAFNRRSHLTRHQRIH

Sequence of TAT-F121-KRAB (QSHT-RSHR-RDHT) (artificial) (chain, as listed by the source): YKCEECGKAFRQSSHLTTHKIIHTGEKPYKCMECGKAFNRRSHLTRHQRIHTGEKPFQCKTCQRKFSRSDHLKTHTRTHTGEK
Sequence of TAT-F475-KRAB (QSHR2-RDHT-RSNR) (artificial) (chain, as listed by the source): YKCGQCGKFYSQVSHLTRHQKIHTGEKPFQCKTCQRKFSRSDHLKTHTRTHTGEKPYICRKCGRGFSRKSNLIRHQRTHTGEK

Row | Substance | activity (fold activation) [1] | activity (fold repression) ([2]; 80 ug lysate, HEK293, 1.5 fold at 40 ug, vs TAT-only) | activity (fold repression) ([3]; +/-0.14, purified protein) | activity (fold repression) ([2]; +/-0.4, VEGF mRNA, 293 cells) | activity (fold repression) ([3]; +/-0.01, VEGF mRNA, lysate) | activity (fold repression) [4] | activity (fold activation) [5]
1 | native human VEGF promoter in pGL3-basic luciferase reporter | 2.5 | 2 | 2.1 | – | – | – | –
2 | endogenous VEGF-A gene | – | – | – | 3.1 | 1.7 | 3.1 | 2.5
